According to paper PMC11142304:
pKd: −log10 of the molar value.

Columns and labels:
[1] = molecular target: ADP-ribosylated ubiquitin (ADPR-Ub) (UniProt P0CG48); experiment: ITC
[2] = molecular target: LnaB (recombinant, ITC and AUC) (L. pneumophila); experiment: ITC

Row | Substance | pKd [1] | stoichiometry N [2]
1 | MavL_N322A | 5.22 | –
2 | Actin (Sangon Biotech, A001041) (from UniProt P60709 1-375) (natural protein) | – | 0.84
